# Numbering of substitutions follows the chain as printed.
# T1: soluble ECD of human B7-H3 (Homo sapiens, UniProt Q5ZPR3)
# T1 construct: His tag (6xHis) (C); made in house
# T1 sequence (Q5ZPR3 with tags, fused parts or gaps): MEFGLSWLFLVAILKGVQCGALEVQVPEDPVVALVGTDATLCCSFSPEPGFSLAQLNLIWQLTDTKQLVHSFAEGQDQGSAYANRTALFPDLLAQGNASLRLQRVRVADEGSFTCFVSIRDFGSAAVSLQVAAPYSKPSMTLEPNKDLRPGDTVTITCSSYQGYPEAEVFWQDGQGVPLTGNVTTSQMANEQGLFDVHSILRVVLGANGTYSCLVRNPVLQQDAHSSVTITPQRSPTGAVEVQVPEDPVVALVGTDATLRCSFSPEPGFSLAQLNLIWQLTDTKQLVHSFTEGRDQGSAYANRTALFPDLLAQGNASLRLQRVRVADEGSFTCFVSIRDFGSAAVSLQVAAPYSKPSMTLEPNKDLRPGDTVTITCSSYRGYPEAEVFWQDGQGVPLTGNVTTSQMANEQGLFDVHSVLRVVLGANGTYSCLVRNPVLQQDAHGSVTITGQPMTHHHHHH
# T2: B7-H3 (Homo sapiens, UniProt Q5ZPR3)
# T2 construct: His tag (6xHis) (C); made in house
# T2 sequence (Q5ZPR3 with tags, fused parts or gaps): T1 sequence (Q5ZPR3 with tags, fused parts or gaps)
# B1: Ab8: murine anti-B7-H3 mAb (mouse hybridoma derived) (antibody, V domains shown)
# VH: EVKLVESGGGLVKPGGSLKLSCAASGFTFSSYGMSWVRQTPEKRLEWVATISGGGNYTYCPDSVKGRFTISRDNAKNNLYLQMSSLRSEDTALYYCTRQRGYDYHYAMDFWGQGTSVTVSS
# VL: DIQMTQSPASLSVSVGETVTITCRASENIYSNLAWHQQKQGKSPQLLVYAATNLADGVPSRFSGNGSDTQYSLKINSLQSEDFGSYFCQNFWGTSWTFGGGTKLEIK
# B2: Ab5: murine anti-B7-H3 mAb (mouse hybridoma derived) (antibody, V domains shown)
# VH: QVQLQQPGDELVKPGASVKLSCKTSGYTFTTDWMHWVKQRPGQGLEWIGMIHPNSGTTNYNEKFKSKAALTVDKSSSTACMQLSSLTSEDSAVYYCARSYWKWYFDVWGTGTTVTVSS
# VL: QIVLTQSPAIMSASLGEEITLTCSASSSVSYMHWYQQKSGTSPKLLIYSTSNLASGVPSRFSGSGSGTFYSLTISSVEAEDSADYYCHQWTSYMYTFGGGTKLEIK
# B3: Ab12: murine anti-B7-H3 mAb (mouse hybridoma derived) (antibody, V domains shown)
# VH: EVQLVESGGGLVKPGGSLKLSCAASGFTFSSYAMSWVRQTPEKRLEWVATISSGTNYTYYPDSVKGRFTISRDNAKNTLYLQMTSLRSEDTAMYYCARQGRYSWIAYWGQGTLVTVSA
# VL: DIVLTQSPASLAVSLGQRATISCRASKSVSTSDYSYMHWNQQKPGQPPKLLIYLASNLESGVPARFSGSGSGTDFTLNIHPVEEEDAATYYCQHSRELLTFGAGTKLELK
# B4: Ab4: murine anti-B7-H3 mAb (mouse hybridoma derived) (antibody, V domains shown)
# VH: QVQLQQPGAELVKPGASVKLSCKASGYSFTSYWMHWVKQRPGQGLEWIGMIHPNSGSNNYNEKFKSKATLTVDKSSNTAYMQLSSLTSEDSAVYYCARRLGLHFDYWGQGTTLTVSS
# VL: DIVMTQSQKFMSTPVGDRVSITCKASQNVGTAVAWYQQKPGQSPKLLIYSASNRYTGVPDRFTGSGSGTDFTLTISNMQSEDLADYFCQQYSSYPYTFGGGTKLEIK
# B5: huAb3v2-CZ (conjugate)
# VH: EVQLVQSGAEVKKPGSSVKVSCKASGYTFSSYWMHWVRQAPGQGLEWIGLIHPDSGSTNYNEMFKNRATLTVDRSTSTAYMELSSLRSEDTAVYYCAGGGRLYFDYWGQGTTVTVSS
# VL: DIVMTQSPLSLPVTPGEPASISCRSSQSLVHSNGDTYLRWYLQKPGQSPQLLIYKVSNRFSGVPDRFSGSGSGTDFTLKISRVEAEDVGVYYCSQSTHVPYTFGGGTKVEIK
# B6: huAb3v2.8-CZ (conjugate)
# VH: B5 VH with D54I
# VL: B5 VL with G34R
# B7: huAb3v2.3-CZ (conjugate)
# VH: B5 VH with D54W
# VL: B5 VL with G34Q
# B8: huAb3v2.2-CZ (conjugate)
# VH: B5 VH with D54W
# VL: B5 VL with G34R
# B9: Ab11: murine anti-B7-H3 mAb (mouse hybridoma derived) (antibody, V domains shown)
# VH: EVKLVESGGGLVQPGGSLRLSCATSGFTFTNYYMSWVRQPPGKALEWLGFIRNKANDYTTEYSASVKGRFTISRDNSQSILYLQMNTLRAEDSATYYCARESPGNPFAYWGQGTLVTVSA
# VL: DIVMTQSPSSLTVTAGEKVTMTCKSSQSLLNSGTQKNFLTWYQQKPGQPPKLLIYWASTRESGVPDRFTGSGSGTDFTLTISSVQAEDLAVYFCQNDYIYPLTFGAGTKLELK
# B10: Ab3: murine anti-B7-H3 mAb (mouse hybridoma derived) (antibody, V domains shown)
# VH: QVQLQQPGAELVKPGASVKLSCKASGYTFSSYWMHWVKQRPGQGLEWIGLIHPDSGSTNYNEMFKNKATLTVDRSSSTAYVQLSSLTSEDSAVYFCAGGGRLYFDYWGQGTTLTVSS
# VL: DVVMTQTPLSLPVSLGDQASISCRSSQSLVHSNGDTYLRWYLQKPGQSPKLLIYKVSNRFSGVPDRFSGSGSGTDFTLKITRVEAEDLGVYFCSQSTHVPYTFGGGTKLEIK
# Key:
# [1] = tested on: soluble ECD of cyno B7-H3; assay: Biacore T200 SPR binding kinetics, mAb capture; design: species or system cynomolgus monkey; settings: Biacore T200, Fc capture of mAb, B7-H3 ECD as analyte, 1:1 binding model
# [2] = biological target: T1, soluble ECD of human B7-H3; assay: Biacore T200 SPR binding kinetics, mAb capture; settings: Biacore T200, Fc capture of mAb, B7-H3 ECD as analyte, 1:1 binding model
# Procedure: The binding affinity of the purified anti-B7-H3 monoclonal antibodies was determined by surface […]. […] The binding kinetics were derived from SPR measurements using a Biacore T200 instrument and a mAb capture approach (as described in the materials and methods below).
# Biacore T200 SPR instruments were used to measure the binding kinetics of human B7-H3 (analyte) binding to various mAbs (ligands). The assay format was Fc-based capture via immobilized anti-mouse (Fc) (Pierce 31170) or immobilized anti-human (Fc) (Pierce 31125). A standard amine coupling protocol was employed to immobilize the capture reagents via primary amines to the carboxy-methyl (CM) dextran surface of CM5 sensorchips (Biacore); capture antibodies were coupled to a level of approximately 5000 RU. For binding kinetic measurements the assay buffer was HBS-EP+ (Biacore): 10 mM Hepes, pH7.4, 150 mM NaCl, 3 mM EDTA, 0.05% polysorbate 20. During the assay, all measurements were referenced against the capture surface alone. Each assay cycle consisted of the following steps: 1) Capture of ligand to approximately 50 RU; 2) Analyte injection over both reference and test surface, 240 μL at 80 μL/min, after which the dissociation was monitored for 900 seconds at 80 μL/min; 3) Regeneration of capture surface with low pH glycine. For kinetic determinations analyte injections were 3-point, 9-fold dilution series of 900 nM, 100 nM and 11.11 nM, buffer only injections were included for secondary referencing. Data were processed and fit to a 1:1 binding model using Biacore T200 Evaluation Software to determine the binding kinetic rate constants, ka (on-rate) and kd (off-rate), and the equilibrium dissociation constant (affinity, KD).
# B7-H3 [3] = biological target: T2, B7-H3; assay: Pair-wise SPR binding assay for epitope grouping; settings: simultaneous binding assay, 12° C.
# From the text: Pair-wise binding assays performed on Biacore T200 SPR instruments were used to determine the relative epitope grouping for the murine anti-B7-H3 mAbs as described in the methods below. […] Epitope groups are represented as individual ovals, some of which overlap with each other. Antibodies in different epitope groups can bind to B7-H3 simultaneously and likely bind to different epitopes while antibodies within a given epitope group cannot bind to B7-H3 simultaneously and likely bind to overlapping epitopes. The grouping information was derived from a simultaneous binding assay as described in materials and methods. Ab3, Ab4, Ab5, Abl 1, Ab12, and Ab8 groupings were ambiguous.
# Pair-wise binding assays performed on Biacore T200 SPR instruments were used to determine the relative epitope grouping for a series of anti-B7-H3 mAbs. The assay format was Fc-based capture via immobilized anti-mouse(Fc) (Pierce 31170) or immobilized anti-human (Fc) (Pierce 31125). A standard amine coupling protocol was employed to immobilize the capture reagents via primary amines to the carboxy-methyl (CM) dextran surface of CM5 sensorchips (Biacore); capture antibodies were coupled to a level of approximately 2000 RU. Epitope grouping measurements were done at 12° C. (low temperature allows for grouping information on fast off-rate mAbs), the assay buffer was HBS-EP+(Biacore): 10 mM Hepes, pH7.4, 150 mM NaCl, 3 mM EDTA, 0.05% polysorbate 20. Each assay cycle consisted of the following steps in a four flowcell system: 1) separate test mAbs were captured in flowcells 2, 3 & 4 (flowcell 1 was reference, no test mAb); 2) all 4 flowcells were then blocked by injection with isotype control mAb or isotype mAb cocktail at 50 μg/mL; 3) all 4 flowcells were then injected with antigen or buffer only (buffer only is for double referencing, done for each mAb pair individually); 4) all 4 flowcells were then injected with 2nd test mAb at 10 μg/mL; 5) all 4 flowcells were then regenerated with glycine, pH1.5. The assay was done for each test mAb pair in reciprocal orientations. Simultaneous binding was evaluated examining the ratio of the 2nd test mAb response to the Ag response (RUmAb2/RUAg); if this ratio was equal to or greater than 0.2 the interaction was scored as a simultaneous binder. From this pair-wise binding assay data a “venn” style diagram was constructed manually to depict relative epitope groupings.
# H847 cells = assay: Cell cytotoxicity of ADCs in H847 cells; format: cell-based; settings: Table 17; CZ conjugates; read-out: Cytotoxicity (H847 Cell line IC50)
# From the text: These new anti-B7-H3 antibodies were further characterized for binding by SPR and conjugated to the Bcl-xLi synthon CZ and assessed for cell cytotoxicity (using the methods described in Example 7).
# [4] = Aggregation of conjugates by SEC; format: physicochemical
# HCC38 cell line = assay: Cell cytotoxicity of ADCs in HCC38 cell line; format: cell-based; settings: Table 14; CZ conjugates
# In short: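 Humanized anti-B7-H3 antibody (chAb18) variants conjugated to the Bcl-xL inhibitor synthon CZ and tested as ADCs for cytotoxicity in HCC38 cells.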
# NCI-H146 cells = assay: In vivo xenograft model of small cell lung cancer (NCI-H146); design: species or system mice; settings: Table 15; 6 mg/kg/IP/QDx1
# B7-H3 [5] = biological target: T2, B7-H3; assay: Affinity of naked mAbs by SPR (Biacore); format: binding; settings: Table 17
# Procedure: The parental chAb18 from which the variants were derived was also tested as a comparator.
# [6] = Table 17, CZ conjugates of huAb3v2 variants
# Chain of soluble ECD of cyno B7-H3 (as listed by the source): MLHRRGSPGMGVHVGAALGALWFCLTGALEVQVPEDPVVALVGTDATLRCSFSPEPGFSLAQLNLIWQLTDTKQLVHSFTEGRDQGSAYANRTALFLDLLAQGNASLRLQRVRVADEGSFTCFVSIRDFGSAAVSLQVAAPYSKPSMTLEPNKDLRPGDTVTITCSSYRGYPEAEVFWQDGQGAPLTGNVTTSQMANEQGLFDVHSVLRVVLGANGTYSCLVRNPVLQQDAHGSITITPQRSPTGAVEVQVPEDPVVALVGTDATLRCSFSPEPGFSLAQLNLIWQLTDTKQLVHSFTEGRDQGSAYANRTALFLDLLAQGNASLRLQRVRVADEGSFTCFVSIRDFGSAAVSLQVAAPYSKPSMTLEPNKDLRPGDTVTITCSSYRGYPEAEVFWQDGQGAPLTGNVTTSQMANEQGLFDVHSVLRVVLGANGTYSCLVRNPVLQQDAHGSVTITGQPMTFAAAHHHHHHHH
Molecule,cynoB7-H3 ka [1] [M⁻¹ s⁻¹],cynoB7-H3 kd [1] [s⁻¹],huB7-H3 ka [2] [M⁻¹ s⁻¹],huB7-H3 kd [2] [s⁻¹],relative human B7-H3 epitope grouping (B7-H3 [3]),IC50 (H847 cells) [nM],"% agg by SEC ([4]; Table 14, CZ conjugates of Ab3 variants) [%]",IC50 (HCC38 cell line) [nM],TGD (%) (NCI-H146 cells),TGImax (%) (NCI-H146 cells),"% agg by SEC [4, 6] [%]","Affinity of naked mAbs (Biacore, KD) (B7-H3 [5])"
B1,160000,0.00026,58000,9.9e-05,ambiguous,–,–,–,–,–,–,–
B2,1.4e+06,0.28,1.3e+06,0.012,ambiguous,–,–,–,–,–,–,–
B3,55000,1e-05,38000,0.00025,ambiguous,–,–,–,–,–,–,–
B4,540000,0.00096,690000,0.0011,ambiguous,–,–,–,–,–,–,–
B5,–,–,–,–,–,1.49,10.1,0.13,52,83,–,–
B6,–,–,–,–,–,2.36,–,–,–,–,5.7,Poor fit
B7,–,–,–,–,–,–,–,–,–,–,1.5,Poor fit
B8,–,–,–,–,–,26.7,–,–,–,–,1.8,Poor fit
B9,27000,7.2e-05,20000,0.00089,ambiguous,–,–,–,–,–,–,–
B10,380000,0.01,520000,0.01,ambiguous,–,–,–,–,–,–,–
